Experimental data: US20030026781A1, “Compositions and methods for regulating endogenous inhibitor of ATP synthase, including treatment for diabetes” (MitoKor, priority 1999, published 2003)
Entries after “also recorded” stand apart in the source; their conditions may differ. Like-named read-outs stand apart in the source and are kept apart here.

What was measured:
[1] = molecular target: T1, mitochondrial ATP synthase (ETC Complex V) in rat liver submitochondrial particles (Rattus norvegicus, UniProt P10719+P15999); experiment: Oligomycin-sensitive ATPase (ATP hydrolase) activity in rat liver submitochondrial particles (SMP); type: biochemical; details: read-out: IC50 for oligomycin-sensitive ATPase inhibition
T1 construct: rat liver submitochondrial particles (SMP) prepared from male Sprague-Dawley rat livers; from tissue; host or cells: male Sprague-Dawley rat liver, submitochondrial particles (method of Walker et al. 1995)
Description: The IF1(42-58) polypeptide was also tested for its ability to inhibit the F0-F1-ATPase in rat ASMPs (alkaline submitochondrial particles) prepared as in the preceding Example. […] ATP hydrolase activity was expressed as the percent of detectable activity in the absence of added IF1-containing fusion protein, and the level of oligomycin-inhibitable activity was also determined (FIG. 8).
The effects of the IF1 peptides on ATPase activity were determined by assaying ATPase in rat liver submitochondrial particles (SMP) prepared from male Sprague-Dawley rat livers according to the method of Walker et al. (1995 Meth. Enzymol. 260:163-190). […] Louis, Mo., unless otherwise noted) for 10 min at room temperature. The mixtures were then added to assay buffer (50 mM Tris-HCl, 3.3 mM MgCl2, pH 8.0) in a 96-well plate and ATPase activity was initiated by the addition of 1 mM ATP, 1 mM phophoenolypyruvate, 3 U/ml pyruvate kinase, 10 U/ml lactate dehydrogenase and 0.3 mM NADH. Reactions were monitored by recording absorbance in “kinetic read” mode at 340 nm for 10 min at 30° C. in a termperature-controlled Spectromax Plus-384™ 96-well plate reader (Molecular Devices, Inc., Sunnyvale, Calif.) according to the manufacturer's instructions. In this mode, the plate reader recorded an absorbance value for each well at approximately nine-second intervals. A parallel set of reactions was set up identically except for the addition of 10 μg/ml oligomycin, to correct for the component of ATPase activity that was oligomycin-inhibitable.
Dose-response curves were generated for IF1 peptides 14-33 (SEQ ID NO:30), 14-47 (SEQ ID NO:29), 14-46 (SEQ ID NO:67), 14-45 (SEQ ID NO:66), 14-44 (SEQ ID NO:65), 14-43 (SEQ ID NO:64) and 14-42 (SEQ ID NO:63) by setting up SMP ATPase reactions as described above with serial dilutions of the IF1 peptides over a range of several orders of magnitude between 10^−4 and 10^2 μM (FIG. 12). Data were plotted and IC50 values were calculated using Prism software (GraphPad, San Diego, Calif.) according to the nianufacturer's instructions. […]

INS-1 cells = experiment: Glucose-stimulated insulin secretion (GSIS) in INS-1 cells with tat.mito.14-47; type: cell-based, rat; details: 8 mM glucose, varying amounts of fusion protein, FIG. 13
Description: The nucleic acid encoding a tat.mito.14-47 fusion protein was constructed essentially as described in Example 2. The tat.mito.14-47 fusion protein (SEQ ID NO:71) enhanced GSIS in INS-1 cells when used in the assay conditions described as follows. Briefly, INS-1 cells were seeded into 12-well plates containing RPMI media supplemented as described at 0.7×10^6 cells/well and cultured at 37° C., 5% CO2 for 2 days. Cells were preincubated in the presence or absence of varying amounts of tat.mito.14-47 or vehicle control in glucose-free RPMI media supplemented with 1% FCS for 1 hr at 37° C. in a humidified 5% CO2/95% air atmosphere. Cells were rinsed with glucose-free modified KRH buffer (134 mM NaCl, 3.6 mM KCl, 0.5 mM NaH2PO4, 0.5 mM MgCl2, 1.5 mM CaCl2, 10 mM HEPES, 5 mM NaHCO3, 0.1% BSA), incubated in the same buffer for 30 min at 37° C. in a humidified 5% CO2/95% air atmosphere, again in the presence or absence of varying amounts of tat.mito.14-47 or vehicle control. Then fresh modified KRH buffer containing 0.25 mM isobutylmethyl xanthine and 8 mM glucose was added, the cells were stimulated for 30 min at 37° C., 5% CO2 and then culture supernatants were collected. Insulin concentrations in the supernatants were measured by immunoasssay (Alpco ELISA Kit) and normalized to protein (Pierce/BCA Kit) according to the manufacturers' instructions.

IC50 ([1]; pH 6.5) | IC50 ([1]; pH 7.25) | IC50 ([1]; pH 8) | Molecule | effect on GSIS (INS-1 cells)
190 ± 24 nM | 420 ± 56 nM | > 800 nM | rat IF1: intact rat inhibitor protein of mitochondrial ATP synthase (SEQ ID NO:13), comparator for peptide 14-47 (protein, listed as Rattus norvegicus) MAGSALAVRARLGVWGMRVLQTRGFGSDSSESMDSGAGSIREAGGAFGKREKAEEDRYFREKTREQLAALKKHHEDEIDHHSKEIERLQKQIERHKKKIKYLKNSEH | 
 |  |  | tat.mito.14-47: fusion protein SEQ ID NO:71: polyhistidine tag, tat, mitochondrial targeting sequence, IF1 fragment 14-47 (protein, Fusion protein) MGGSHHHHHHGMASMTGGQQMGRDLYDDDDKDPSSGYGRKKRRQRRRGMAGSALAVRARLGVWGMRVLQTRGFSIREAGGAFGKREKAEEDRYFREKTREQLAALKK | enhanced GSIS; also recorded: further induced glucose stimulated insulin secretion in a dose dependent manner
